# Read-outs that look alike come from different tables or passages of the source.
# T1: extracellular domain of the human prolactin receptor (human, UniProt P16471 25-234, biotin (site not stated; in the phage ELISA))
# T1 chain: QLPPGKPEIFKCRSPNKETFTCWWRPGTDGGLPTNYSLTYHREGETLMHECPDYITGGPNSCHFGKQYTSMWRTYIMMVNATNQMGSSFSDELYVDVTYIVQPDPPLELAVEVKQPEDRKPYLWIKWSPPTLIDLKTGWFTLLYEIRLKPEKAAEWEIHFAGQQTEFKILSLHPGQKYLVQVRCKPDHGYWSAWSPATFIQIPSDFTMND
# T2: extracellular domain of the human prolactin receptor (human, UniProt P16471 25-234, biotin (site not stated; in the phage ELISA))
# T2 construct: prolactin receptor, human, extracellular domain (two tandem fibronectin domains FN1 and FN2); No methods in the main text; also called hPRL-R; hPRL-R ECD
# T2 sequence (looked up): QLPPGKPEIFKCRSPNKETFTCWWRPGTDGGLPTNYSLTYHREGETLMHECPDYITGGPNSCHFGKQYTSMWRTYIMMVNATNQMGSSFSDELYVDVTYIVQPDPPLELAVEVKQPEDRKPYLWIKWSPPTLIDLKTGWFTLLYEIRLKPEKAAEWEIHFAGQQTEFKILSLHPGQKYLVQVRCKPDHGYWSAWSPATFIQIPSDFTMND
# B1: human prolactin (ligand, UniProt P01236 29-227, looked up)
# chain: LPICPGGAARCQVTLRDLFDRAVVLSHYIHNLSSEMFSEFDKRYTHGRGFITKAINSCHTSSLATPEDKEQAQQMNQKDFLSLIVSILRSWNEPLYHLVTEVRGMQEAPEAILSKAVEIEEQTKRLLEGMELIVSQVHPETKENEIYPVWSGLPSLQMADEESRLSAYYNLLHCLRRDSHKIDNYLKLLKCRIIHNNNC
# notes: prolactin, human; Labelled with cy5 in the internalization experiment; also called hPRL; PRL
# B2: synthetic antibody (sAB) A8 (Fab, V domains shown)
# VH: EVQLVESGGGLVQPGGSLRLSCAASGFNFSSSSMHWVRQAPGQGLEWVAYISPYYGSTSYADSVKGRFTISADTSKNTAYLQMNSLRAEDTAVYYCARSYGYVYWNAYSSGMDYWGQGTLVTVSS
# VL: DIQMTQSPSSLSASVGDRVTITCRASQSVSSAVAWYQQKPGKAPKLLIYSASSLYSGVPSRFSGSRSGTDFTLTISSLQPEDFATYYCQQYYSYYYPFTFGQGTKVEIK
# notes: Fab scaffold before loop H1; heavy chain loop 1 (H1), randomized loop; Fab scaffold between H1 and H2; heavy chain loop 2 (H2), randomized loop; Fab scaffold between H2 and H3; heavy chain loop 3 (H3), randomized loop; Fab scaffold after H3 (rest of VH and CH1); Fab scaffold before loop L3; light chain loop 3 (L3), randomized loop; Fab scaffold after L3 (rest of VL and CL); Only the four …
# Columns and labels:
# [1] = target: prolactin receptor (Homo sapiens) (UniProt P16471); conditions: cited from earlier work
# [2] = target: prolactin receptor (Homo sapiens) (UniProt P16471); conditions: cited from earlier work; remark: listed apart in the source
# [3] = target: T1, extracellular domain of the human …; assay: ELISA; competition with phage-displayed sAB A8
# [4] = target: T1, extracellular domain of the human …; assay: ELISA; competition with phage-displayed sAB A9
# [5] = target: T1, extracellular domain of the human …; assay: ELISA; competition with phage-displayed sAB A10
# [6] = target: T2, extracellular domain of the human …; assay: ELISA; competition phage ELISA; biotinylated receptor immobilised on streptavidin plates; hGH or PRL titrated against phage-displayed sAB; conditions: both partners purified
# [7] = target: T3, extracellular domain of the human prolactin receptor (human, UniProt P16471, biotin (site not stated; in the phage ELISA)); assay: SPR; Biacore 2000; dissociation constant calculated from the on and off rates; conditions: both partners purified
# T3 construct: prolactin receptor, human, extracellular domain (two tandem fibronectin domains FN1 and FN2); No methods in the main text; also called hPRL-R; hPRL-R ECD
molecule,measurement,setting,value
prolactin (from UniProt P01236),Kd,[1],6 nM
growth hormone (from UniProt P01241),Kd,[2],1 nM
B1,IC50,[3],11 nM
same,IC50,[4],13 nM
same,IC50,[5],9 nM
same,binding result,[6],binds
B2,Kd,[7],5.6 nM
same,koff,[7],0.00054 s⁻¹
same,kon,[7],96000 M⁻¹ s⁻¹

# — PMC4300558 (Cell Communication and Signaling : CCS, 2015)
